Assay results from publication PMC6559209.

Biological target: YlHD, hydrophilic domain of the Yarrowia lipolytica group 3 LEA protein (Yarrowia lipolytica)
Test: MST; HD labelled with RED-NHS at 2 uM; label-free LDH titrated, diluted from 71 uM; binding buffer 20 mM HEPES, 150 mM KCl, pH 7.4 (the legend says phosphate buffer); normal conditions; Monolith NT.115, 20% LED, 60% MST power

## lactate dehydrogenase (LDH) (enzyme)
  Kd: 5.03 µM
